Patent US20030171279A1

Tests used:
[1] = target: mouse BAD (murine BAD pro-apoptotic polypeptide) (mouse) (UniProt Q61337); assay: cell-based or functional assay
[2] = target: T1, mouse BAD (murine BAD pro-apoptotic polypeptide)
T1 chain: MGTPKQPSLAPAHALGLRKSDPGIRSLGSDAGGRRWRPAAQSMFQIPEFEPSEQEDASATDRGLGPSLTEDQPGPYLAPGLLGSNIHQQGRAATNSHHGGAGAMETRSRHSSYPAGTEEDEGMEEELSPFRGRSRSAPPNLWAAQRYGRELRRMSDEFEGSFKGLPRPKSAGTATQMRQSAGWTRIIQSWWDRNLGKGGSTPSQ

[3] = target: T2, HSV-1 UL34 protein, P10218
T2 chain: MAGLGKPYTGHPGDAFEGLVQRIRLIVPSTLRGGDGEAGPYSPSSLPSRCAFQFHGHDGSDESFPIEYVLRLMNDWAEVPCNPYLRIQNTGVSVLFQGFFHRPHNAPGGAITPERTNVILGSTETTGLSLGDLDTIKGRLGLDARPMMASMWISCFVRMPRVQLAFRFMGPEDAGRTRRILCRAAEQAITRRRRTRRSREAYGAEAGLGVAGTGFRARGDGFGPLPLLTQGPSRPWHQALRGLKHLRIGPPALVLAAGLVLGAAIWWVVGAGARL

Row | Molecule | DEVDase activity (fold increase over mock-infected cells) (fold increase) [1] | DNA fragmentation (agarose gel) [2] | cleavage of poly(ADP-ribose) polymerase (Mr 85,000 PARP cleavage product, immunoblot) [2] | electrophoretic mobility and total amount of BAD (immunoblot with anti-BAD antibody) [2] | levels of BAD phosphorylated at ser136, ser155 and ser112 (immunoblot with phospho-specific antibodies) [2] | processing of UL34 protein (apparent Mr 30,000 against 33,000; 32P labelling and UL34 immunoblot) [3]
1 | herpes simplex virus 1 (HSV-1) US3 protein kinase (from UniProt P04413 1-481) (enzyme) | < 2 | – | – | – | – | –
2 | herpes simplex virus 1 (HSV-1) US3 protein kinase (protein) MACRKFCRVYGGQGRRKEEAVPPETKPSRVFPHGPFYTPAEDACLDSPPPETPKPSHTTPPSEAERLCHLQEILAQMYGNQDYPIEDDPSADAADDVDEDAPDDVAYPEEYAEELFLPGDATGPLIGANDHIPPPCGASPPGIRRRSRDEIGATGFTAEELDAMDREAARAISRGGKPPSTMAKLVTGMGFTIHGALTPGSEGCVFDSSHPDYPQRVIVKAGWYTSTSHEARLLRRLDHPAILPLLDLHVVSGVTCLVLPKYQADLYTYLSRRLNPLGRPQIAAVSRQLLSAVDYIHRQGIIHRDIKTENIFINTPEDICLGDFGAACFVQGSRSSPFPYGIAGTIDTNAPEVLAGDPYTTTVDIWSAGLVIFETAVHNASLFSAPRGPKRGPCDSQITRIIRQAQVHVDEFSPHPESRLTSRYRSRAAGNNRPPYTRPAWTRYYKMDIDVEYLVCKALTFDGALRPSAAELLCLPLFQQK | – | DNA fragmentation was not observed in extracts of Bac-Bad treated cells that had been previously exposed to Bac-US3 | readily detected in mock- or in Bac-WT-infected cells that had been exposed to Bac-Bad, but not in Bac-US3 infected cells that had been exposed to Bac-Bad | migrated more slowly and was significantly reduced in amount relative to those detected in lysates of cells exposed to BAC-WT or mock-infected prior to exposure to Bac-BAD | The levels of BAD phosphorylated at ser136, ser155, and ser112 present in cells mock infected were similar to those present in cells infected with Bac-WT or Bac-US3 | the fully processed UL34 protein was present in cells infected with HSV-1(F) but not cells infected with 120FR or R7041
